Experimental data as given in patent US12583888B2, “Bi-specific extracellular matrix binding peptides and methods of use thereof” (University of Tartu, priority 2019, dated 2026).
No end group written: not given here.

Legend:
fibronectin EDB-domain = target: T1, fibronectin EDB-domain (Homo sapiens, UniProt P02751); test: PL3 phage binding to fibronectin EDB-domain
T1 construct: made in house; host or cells: E. coli BL21 Rosetta 2 (DE3) pLysS
Source text: The recovered phage was tittered and amplified for a subsequent round of selection. […] RPARPAR phage on NRP-1-coated beads was used as a positive control (Teesalu et al., 2009). Phage clones displaying heptaglycine peptide (GGGGGGG, G7 (SEQ ID NO:20)) or insert less phage clones were used as negative controls.

P13 tumor = details: i.v. equimolar mix, 2 h circulation
Source text: (§1) In vivo play-off was used to evaluate systemic homing of peptide phage to xenograft tumor models. The in vitro selected candidate TNC-C binding peptides, phages displaying published tumor homing peptides, and control peptides were amplified and purified by precipitation with PEG-8000 (Sigma-Aldrich, St. Louis, MO, USA), followed by CsCl2 gradient ultracentrifugation and dialysis. The amplified phage peptides were pooled in equimolar quantities, and injected intravenously (final 1×10^10 pfu in 200 μl PBS) in tumor-bearing mice for two hour circulation, after which mice were anesthetized with 2.5% avertin and intracardially perfused with DMEM intracardially. The tumors and organs were collected in lysogeny broth (LB)+1% NP40, and the tissues were homogenized using a hand-held homogenizer for phage peptide rescue. Phages in the tissue lysates were amplified in E. coli, purified by precipitation with PEG-8000 and DNA was extracted using a DNA extraction kit (High Pure PCR Template Preparation Kit; Roche, Basel, Switzerland). Next-generation sequencing of phage genomic DNA evaluated the representation of each phage in input mixture, in tumor and control organs with Ion Torrent system (Thermo Fisher Scientific, Waltham, MA, USA). The next generation deep sequencing of phage library was done using Ion Torrent according to the manufacturer's protocol with slight modification. The FASTQ data from Ion Torrent was processed by a custom python script that identified the barcodes, constant flanking residues, and extracted the reads of the correct length.

P3 stem cell-like tumor = details: i.v. equimolar mix, 2 h circulation
Source text: as §1

[1] = test system: PC3 prostate carcinoma xenografts; details: i.v. equimolar mix, 2 h circulation
Source text: as §1

U87-MG glioblastoma = details: i.v. equimolar mix, 2 h circulation
Source text: as §1

WT-GBM tumor = details: i.v. equimolar mix, 2 h circulation
Source text: as §1

normal brain = details: i.v. equimolar mix, 2 h circulation
Source text: as §1

M21 cells = test: Cell binding and internalization of CF555-labeled AgNPs; format: cell-based; details: NRP-1-negative M21, 1 h incubation
Experimental: (§2) U87-MG, PPC1, and M21 cells cultured on glass coverslips were incubated with CF555-labeled AgNPs at 37° C. for 1 hour, followed by washing with medium to remove background AgNPs. Etching solution freshly diluted from 0.2 M stock solutions of Na2S2O3 and K3Fe(CN)6 to 10 mM working concentration in PBS was applied to cells for 3 minutes, followed by PBS washes. The cells on coverslips were fixed with −20° C. methanol for 1 minute. The cell membrane was visualized by staining with Alexa Fluor 488-labeled wheat germ agglutinin (WGA) at 1:1000 at RT for 1 h. […] Fluoromount-G (Electron Microscopy Sciences) medium was used to mount the coverslips on microscope slides for confocal imaging.

U87-MG cells = test: as above; format: cell-based, human; details: NRP-1-positive U87-MG, 1 h incubation
Experimental: as §2

PPC1 cells = test: as above; format: cell-based; details: NRP-1-positive PPC1, 1 h incubation
Experimental: as §2

U87-MG xenograft = test: In vivo fluorescence imaging with the IVIS Spectrum system; parameters: species or system mice
Experimental: Live imaging of PL3 peptide tumor homing was assessed by in vivo fluorescence imaging with the IVIS Spectrum imaging system (PerkinElmer, Waltham, MA) in U87-MG xenograft mice model (Male, 18-20 weeks of age). AgNPs with CF647 dye-labeled neutravidin coating was functionalized with biotinylated PL3 peptide (AgNP-PL3) or control biotin (AgNP). AgNP PL3 and AgNP particles were injected intravenously into the mice. For assessment of tumor PL3 targeted delivery and homing by IVIS, mice were placed in a dark imaging chamber under isoflurane anesthesia, and imaged with the following parameters. Specific excitation filter, 650 nm; emission filter, 665 nm; auto exposure time; binning, medium; field of view, 12; f/stop, 2; open filter. The images were captured at pre-injection (0 hours) and five-hour post-injection. The signal was expressed in total Radiant Efficiency [p/s]/[μW/cm^2]. The regions of interest (ROIs) were drawn covering the whole tumor in each mouse after tissue background correction, and radiant efficiency signal was quantitated. An automated spectral unmixing algorithm was used, images were analyzed by using Living Image 4.4 software (Caliper Life Sciences, Hopkinton, MA). Three animals per experimental group were analyzed. For the receptor blocking studies, PL3-AgNP injection was preceded by systemic pre-injection of blocking TNC-C and/or NRP1 antibodies (30 μg/mouse) 15 minutes prior to injection of the AgNPs.

T1 sequence (P02751 with tags, fused parts or gaps): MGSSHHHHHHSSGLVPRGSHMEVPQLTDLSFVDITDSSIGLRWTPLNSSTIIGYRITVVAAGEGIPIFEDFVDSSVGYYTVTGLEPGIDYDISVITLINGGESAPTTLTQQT

## AGRGRLVR [PL3]
Fibronectin EDB-domain
  binding to fibronectin EDB-domain: did not bind
P13 tumor
  Representation of phage in tumors (fold G7 control phage), P13: 4.7 fold
P3 stem cell-like tumor
  Representation of phage in tumors (fold G7 control phage), P3 SCL: 2.1 fold
[1]
  Representation of phage in tumors (fold G7 control phage), PC3: 3.9 fold
U87-MG glioblastoma
  Representation of phage in tumors (fold G7 control phage), U87-MG: 2.1 fold
WT-GBM tumor
  Representation of phage in tumors (fold G7 control phage), WT-GBM: 24.1 fold
Normal brain
  Representation of phage in control brain tissue (fold G7 control phage), Norm. brain: 0.4 fold
M21 cells
  cellular uptake: low background-like uptake

## PL3-AgNPs: dye-labeled neutravidin-coated silver nanoparticles functionalized with biotinylated PL3 peptide (AGRGRLVR; also: biotinylated, bound to dye-labeled neutravidin-coated silver nanoparticles)
U87-MG cells
  cellular uptake: robustly endocytosed with perinuclear accumulation
PPC1 cells
  cellular uptake: robustly endocytosed with perinuclear accumulation
U87-MG xenograft; 5 hours, i.v.
  accumulation in glioma lesions more than control non-peptide CF647-AgNP: ~10 fold
U87-MG xenograft; cocktail of both antibodies
  tumor homing on coadministration with blocking antibodies: almost completely inhibited the tumor accumulation
U87-MG xenograft; rabbit polyclonal antibodies against either TNC-C or NRP-1
  tumor homing on coadministration with blocking antibodies: decrease in tumor homing
